Measured values published in patent US12099068B2, “Biomarkers for graft-versus-host disease” (Incyte Corporation, priority 2018, dated 2024).

B1: SERPINA5 (protein, UniProt P05154 26-406, looked up)
Plasma serine protease …: EMKKRVEDLHVGATVAPSSRRDFTFDLYRALASAAPSQSIFFSPVSISMSLAMLSLGAGSSTKMQILEGLGLNLQKSSEKELHRGFQQLLQELNQPRDGFQLSLGNALFTDLVVDLQDTFVSAMKTLYLADTFPTNFRDSAGAMKQINDYVAKQTKGKIVDLLKNLDSNAVVIMVNYIFFKAKWETSFNHKGTQEQDFYVTSETVVRVPMMSREDQYHYLLDRNLSCRVVGVPYQGNATALFILPSEGKMQQVENGLSEKTLRKWLKMFKKRQLELYLPKFSIEGSYQLEKVLPSLGISNVFTSHADLSGISNHSNIQVSEMVHKAVVEVDESGTRAAAATGTIFTFRSARLNSQRLVFNRPFLMFIVDNNILFLGKVNRP
B2: NFKBIE (protein, UniProt O00221 1-500, looked up)
NF-kappa-B inhibitor epsilon: MNQRRSESRPGNHRLQAYAEPGKGDSGGAGPLSGSARRGRGGGGAIRVRRPCWSGGAGRGGGPAWAVRLPTVTAGWTWPALRTLSSLRAGPSEPHSPGRRPPRAGRPLCQADPQPGKAARRSLEPDPAQTGPRPARAAGMSEARKGPDEAEESQYDSGIESLRSLRSLPESTSAPASGPSDGSPQPCTHPPGPVKEPQEKEDADGERADSTYGSSSLTYTLSLLGGPEAEDPAPRLPLPHVGALSPQQLEALTYISEDGDTLVHLAVIHEAPAVLLCCLALLPQEVLDIQNNLYQTALHLAVHLDQPGAVRALVLKGASRALQDRHGDTALHVACQRQHLACARCLLEGRPEPGRGTSHSLDLQLQNWQGLACLHIATLQKNQPLMELLLRNGADIDVQEGTSGKTALHLAVETQERGLVQFLLQAGAQVDARMLNGCTPLHLAAGRGLMGISSTLCKAGADSLLRNVEDETPQDLTEESLVLLPFDDLKISGKLLLCTD
B3: ST3GAL1 (protein, UniProt Q11201 1-340, looked up)
CMP-N-acetylneuraminate-beta-g …: MVTLRKRTLKVLTFLVLFIFLTSFFLNYSHTMVATTWFPKQMVLELSENLKRLIKHRPCTCTHCIGQRKLSAWFDERFNQTMQPLLTAQNALLEDDTYRWWLRLQREKKPNNLNDTIKELFRVVPGNVDPMLEKRSVGCRRCAVVGNSGNLRESSYGPEIDSHDFVLRMNKAPTAGFEADVGTKTTHHLVYPESFRELGDNVSMILVPFKTIDLEWVVSAITTGTISHTYIPVPAKIRVKQDKILIYHPAFIKYVFDNWLQGHGRYPSTGILSVIFSMHVCDEVDLYGFGADSKGNWHHYWENNPSAGAFRKTGVHDADFESNVTATLASINKIRIFKGR
B4: hOSCAR (protein, UniProt Q8IYS5 19-282, looked up)
Osteoclast-associated …: DITPSVPPASYHPKPWLGAQPATVVTPGVNVTLRCRAPQPAWRFGLFKPGEIAPLLFRDVSSELAEFFLEEVTPAQGGIYRCCYRRPDWGPGVWSQPSDVLELLVTEELPRPSLVALPGPVVGPGANVSLRCAGRLRNMSFVLYREGVAAPLQYRHSAQPWADFTLLGARAPGTYSCYYHTPSAPYVLSQRSEVLVISWEGEGPEARPASSAPGMQAPGPPPSDPGAQAPSLSSFRPRGLVLQPLLPQTQDSWDPAPPPSDPGV
B5: CST5 (protein, UniProt P28325 21-142, looked up)
Cystatin-D: GSASAQSRTLAGGIHATDLNDKSVQCALDFAISEYNKVINKDEYYSRPLQVMAAYQQIVGGVNYYFNVKFGRTTCTKSQPNLDNCPFNDQPKLKEEEFCSFQINEVPWEDKISILNYKCRKV
B6: LAT (protein, UniProt O43561 1-262, looked up)
Linker for activation of …: MEEAILVPCVLGLLLLPILAMLMALCVHCHRLPGSYDSTSSDSLYPRGIQFKRPHTVAPWPPAYPPVTSYPPLSQPDLLPIPRSPQPLGGSHRTPSSRRDSDGANSVASYENEGASGIRGAQAGWGVWGPSWTRLTPVSLPPEPACEDADEDEDDYHNPGYLVVLPDSTPATSTAAPSAPALSTPGIRDSAFSMESIDDYVNVPESGESAEASLDGSREYVNVSQELHPGAAKTEPAALSSQEAEEVEEEGAPDYENLQELN
B7: CES2 (protein, UniProt O00748 27-559, looked up)
Cocaine esterase: QDSASPIRTTHTGQVLGSLVHVKGANAGVQTFLGIPFAKPPLGPLRFAPPEPPESWSGVRDGTTHPAMCLQDLTAVESEFLSQFNMTFPSDSMSEDCLYLSIYTPAHSHEGSNLPVMVWIHGGALVFGMASLYDGSMLAALENVVVVIIQYRLGVLGFFSTGDKHATGNWGYLDQVAALRWVQQNIAHFGGNPDRVTIFGESAGGTSVSSLVVSPISQGLFHGAIMESGVALLPGLIASSADVISTVVANLSACDQVDSEALVGCLRGKSKEEILAINKPFKMIPGVVDGVFLPRHPQELLASADFQPVPSIVGVNNNEFGWLIPKVMRIYDTQKEMDREASQAALQKMLTLLMLPPTFGDLLREEYIGDNGDPQTLQAQFQEMMADSMFVIPALQVAHFQCSRAPVYFYEFQHQPSWLKNIRPPHMKADHGDELPFVFRSFFGGNYIKFTEEEEQLSRKMMKYWANFARNGNPNGEGLPHWPLFDQEEQYLQLNLQPAVGRALKAHRLQFWKKALPQKIQELEEPEERHTEL
B8: PTPRJ (protein, UniProt Q12913 36-1337, looked up)
Receptor-type …: AGGTPSPIPDPSVATVATGENGITQISSTAESFHKQNGTGTPQVETNTSEDGESSGANDSLRTPEQGSNGTDGASQKTPSSTGPSPVFDIKAVSISPTNVILTWKSNDTAASEYKYVVKHKMENEKTITVVHQPWCNITGLRPATSYVFSITPGIGNETWGDPRVIKVITEPIPVSDLRVALTGVRKAALSWSNGNGTASCRVLLESIGSHEELTQDSRLQVNISGLKPGVQYNINPYLLQSNKTKGDPLGTEGGLDASNTERSRAGSPTAPVHDESLVGPVDPSSGQQSRDTEVLLVGLEPGTRYNATVYSQAANGTEGQPQAIEFRTNAIQVFDVTAVNISATSLTLIWKVSDNESSSNYTYKIHVAGETDSSNLNVSEPRAVIPGLRSSTFYNITVCPVLGDIEGTPGFLQVHTPPVPVSDFRVTVVSTTEIGLAWSSHDAESFQMHITQEGAGNSRVEITTNQSIIIGGLFPGTKYCFEIVPKGPNGTEGASRTVCNRTVPSAVFDIHVVYVTTTEMWLDWKSPDGASEYVYHLVIESKHGSNHTSTYDKAITLQGLIPGTLYNITISPEVDHVWGDPNSTAQYTRPSNVSNIDVSTNTTAATLSWQNFDDASPTYSYCLLIEKAGNSSNATQVVTDIGITDATVTELIPGSSYTVEIFAQVGDGIKSLEPGRKSFCTDPASMASFDCEVVPKEPALVLKWTCPPGANAGFELEVSSGAWNNATHLESCSSENGTEYRTEVTYLNFSTSYNISITTVSCGKMAAPTRNTCTTGITDPPPPDGSPNITSVSHNSVKVKFSGFEASHGPIKAYAVILTTGEAGHPSADVLKYTYEDFKKGASDTYVTYLIRTEEKGRSQSLSEVLKYEIDVGNESTTLGYYNGKLEPLGSYRACVAGFTNITFHPQNKGLIDGAESYVSFSRYSDAVSLPQDPGVICGAVFGCIFGALVIVTVGGFIFWRKKRKDAKNNEVSFSQIKPKKSKLIRVENFEAYFKKQQADSNCGFAEEYEDLKLVGISQPKYAAELAENRGKNRYNNVLPYDISRVKLSVQTHSTDDYINANYMPGYHSKKDFIATQGPLPNTLKDFWRMVWEKNVYAIIMLTKCVEQGRTKCEEYWPSKQAQDYGDITVAMTSEIVLPEWTIRDFTVKNIQTSESHPLRQFHFTSWPDHGVPDTTDLLINFRYLVRDYMKQSPPESPILVHCSAGVGRTGTFIAIDRLIYQIENENTVDVYGIVYDLRMHRPLMVQTEDQYVFLNQCVLDIVRSQKDSKVDLIYQNTTAMTIYENLAPVTTFGKTNGYIA
B9: CNDP1 (protein, UniProt Q96KN2 27-507, looked up)
Beta-Ala-His dipeptidase: SPSPPPALLEKVFQYIDLHQDEFVQTLKEWVAIESDSVQPVPRFRQELFRMMAVAADTLQRLGARVASVDMGPQQLPDGQSLPIPPVILAELGSDPTKGTVCFYGHLDVQPADRGDGWLTDPYVLTEVDGKLYGRGATDNKGPVLAWINAVSAFRALEQDLPVNIKFIIEGMEEAGSVALEELVEKEKDRFFSGVDYIVISDNLWISQRKPAITYGTRGNSYFMVEVKCRDQDFHSGTFGGILHEPMADLVALLGSLVDSSGHILVPGIYDEVVPLTEEEINTYKAIHLDLEEYRNSSRVEKFLFDTKEEILMHLWRYPSLSIHGIEGAFDEPGTKTVIPGRVIGKFSIRLVPHMNVSAVEKQVTRHLEDVFSKRNSSNKMVVSMTLGLHPWIANIDDTQYLAAKRAIRTVFGTEPDMIRDGSTIPIAKMFQEIVHKSVVLIPLGAVDDGEHSQNEKINRWNYIEGTKLFAAFFLEMAQLH
B10: SIRT2 (protein, UniProt Q8IXJ6 2-389, looked up)
NAD-dependent protein …: AEPDPSHPLETQAGKVQEAQDSDSDSEGGAAGGEADMDFLRNLFSQTLSLGSQKERLLDELTLEGVARYMQSERCRRVICLVGAGISTSAGIPDFRSPSTGLYDNLEKYHLPYPEAIFEISYFKKHPEPFFALAKELYPGQFKPTICHYFMRLLKDKGLLLRCYTQNIDTLERIAGLEQEDLVEAHGTFYTSHCVSASCRHEYPLSWMKEKIFSEVTPKCEDCQSLVKPDIVFFGESLPARFFSCMQSDFLKVDLLLVMGTSLQVQPFASLISKAPLSTPRLLINKEKAGQSDPFLGMIMGLGGGMDFDSKKAYRDVAWLGECDQGCLALAELLGWKKELEDLVRREHASIDAQSGAGVPNPSTSASPKKSPPPAKDEARTTEREKPQ
B11: CX3CL1 (protein, UniProt P78423 25-397, looked up)
Fractalkine: QHHGVTKCNITCSKMTSKIPVALLIHYQQNQASCGKRAIILETRQHRLFCADPKEQWVKDAMQHLDRQAAALTRNGGTFEKQIGEVKPRTTPAAGGMDESVVLEPEATGESSSLEPTPSSQEAQRALGTSPELPTGVTGSSGTRLPPTPKAQDGGPVGTELFRVPPVSTAATWQSSAPHQPGPSLWAEAKTSEAPSTQDPSTQASTASSPAPEENAPSEGQRVWGQGQSPRPENSLEREEMGPVPAHTDAFQDWGPGSMAHVSVVPVSSEGTPSREPVASGSWTPKAEEPIHATMDPQRLGVLITPVPDAQAATRRQAVGLLAFLGLLFCLGVAMFTYQSLQGCPRKMAGEMAEGLRYIPRSCGSNSYVLVPV
B12: SIRPB1 (protein, UniProt O00241 30-398, looked up)
Signal-regulatory protein …: EDELQVIQPEKSVSVAAGESATLRCAMTSLIPVGPIMWFRGAGAGRELIYNQKEGHFPRVTTVSELTKRNNLDFSISISNITPADAGTYYCVKFRKGSPDDVEFKSGAGTELSVRAKPSAPVVSGPAVRATPEHTVSFTCESHGFSPRDITLKWFKNGNELSDFQTNVDPAGDSVSYSIHSTARVVLTRGDVHSQVICEIAHITLQGDPLRGTANLSEAIRVPPTLEVTQQPMRAENQANVTCQVSNFYPRGLQLTWLENGNVSRTETASTLIENKDGTYNWMSWLLVNTCAHRDDVVLTCQVEHDGQQAVSKSYALEISAHQKEHGSDITHEAALAPTAPLLVALLLGPKLLLVVGVSAIYICWKQKA

Test system: plasma proteins
Experiment: Plasma proteins modulated between baseline and day 28 in responders (CR, VGPR, PR; n = 19), Example 6 (Table 13)
Format: in vivo, human
Settings: plasma protein (OLINK NPX); responders (CR, VGPR, PR; n = 19); itacitinib 200 mg or 300 mg QD with corticosteroids; day 28 vs baseline
Method in brief: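 Longitudinal comparison, day 28 versus baseline, with steroid-naive (N=10) and steroid-refractory (N=18) patients combined. Proteins measured by OLINK proximity extension, log2 normalized protein expression. Differences tested by t tests, ANOVA, Pearson correlation, P<0.05 significant.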

Row | Molecule | Fold Change, Increased Expression from Baseline to Day 28 | Fold Change, Decreased Expression from Baseline to Day 28
1 | B1 | 1.2683 | 
2 | B2 |  | −1.2885
3 | B3 | 1.3415 | 
4 | B4 |  | −1.2603
5 | B5 | 1.3521 | 
6 | B6 |  | −2.049
7 | B7 | 1.4212 | 
8 | B8 |  | −1.7421
9 | B9 | 1.3856 | 
10 | B10 |  | −1.6014
11 | B11 | 1.5454 | 
12 | B12 |  | −1.3991
